In publication doi:10.1101/271593 (bioRxiv, 2018):

What was measured:
crystal structure = target: the molecule itself; experiment: crystal structure
native MS = target: the molecule itself; experiment: native MS

B1: HsMTHFR_(38-644) (domain or fragment)
chain: not shown
- stoichiometry N (crystal structure): 2

B2: HsMTHFR_(1-656) treated with calf intestine alkaline phosphatase (dephosphorylated) (enzyme)
chain: not shown
- stoichiometry N (native MS): 2
